Literature values, collected in PMC7962812.

Target: Bax (Homo sapiens) (UniProt Q07812)
Sequence (Q07812 whole entry): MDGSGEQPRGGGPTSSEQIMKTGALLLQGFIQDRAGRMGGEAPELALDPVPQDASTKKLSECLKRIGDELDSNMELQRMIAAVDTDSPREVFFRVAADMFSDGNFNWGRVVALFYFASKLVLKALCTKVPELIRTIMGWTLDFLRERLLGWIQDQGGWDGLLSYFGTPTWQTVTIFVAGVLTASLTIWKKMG

Chain of Bcl-2 (P10415 whole entry): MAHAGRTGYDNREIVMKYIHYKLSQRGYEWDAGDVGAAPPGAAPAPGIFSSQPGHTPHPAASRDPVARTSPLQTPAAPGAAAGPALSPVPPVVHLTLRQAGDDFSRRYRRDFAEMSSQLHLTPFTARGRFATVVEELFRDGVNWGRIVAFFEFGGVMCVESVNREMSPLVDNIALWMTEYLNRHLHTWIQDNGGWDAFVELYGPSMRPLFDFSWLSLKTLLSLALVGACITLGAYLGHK

Bcl-2 (from UniProt P10415)
Kd: 35.8 nM
